# Experimental data: patent US20210324028A1
# Read-outs that look alike come from different tables or passages of the source.
# How the values were obtained:
# Assay in all cases: SPR, steady state
# [1] = target: human IL-2Rβ (human) (UniProt P14784)
# [2] = target: human IL-2Rβ (human) (UniProt P14784); remark: listed apart in the source
# [3] = target: human IL-15Rα (human) (UniProt Q13261)
# human IL-15Rα (human), sequence (Q13261 31-205 limits assumed): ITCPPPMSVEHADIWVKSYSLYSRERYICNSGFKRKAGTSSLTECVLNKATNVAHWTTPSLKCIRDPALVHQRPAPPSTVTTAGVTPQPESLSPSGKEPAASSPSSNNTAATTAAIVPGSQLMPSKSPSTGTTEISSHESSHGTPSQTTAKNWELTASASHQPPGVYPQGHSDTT
# human IL-2Rβ (human), sequence (P14784 27-240 limits assumed): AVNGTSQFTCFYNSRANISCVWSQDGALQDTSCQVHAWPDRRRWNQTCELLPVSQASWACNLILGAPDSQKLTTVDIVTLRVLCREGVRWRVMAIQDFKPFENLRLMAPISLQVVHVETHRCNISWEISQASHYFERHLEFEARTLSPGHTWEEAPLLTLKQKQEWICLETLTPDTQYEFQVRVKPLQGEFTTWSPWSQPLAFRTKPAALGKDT
Kd [1] [nM],Kd [2] [nM],Kd [3] [nM],Substance
69.6,54.4,,"IL-15Rasu-IL-15 (non-fusion, wild-type) (from UniProt Q13261 31-95)"
,> 500,130,hIL-15 V49R/E64 N/S (ligand)
